Measured values published in patent US20200207859A1 (priority 2017, published 2020).

How the values were obtained:
Assay type in all cases: cell-based
K562 (CML) = assay: Cell killing assay (cell proliferation, Cell Titer-Glo); set-up: key to Cell Killing Activity Span: NK = no killing; NB = no binding; conditions: 72 hrs
Method: (§1) Cytotoxicity effects of the free drug linkers and conjugates were measured with a cell proliferation assay. A total of 12500 cells in a volume of 25 μl were seeded in a 384-well flat bottom white polystyrene plate on the day of assay. Free drug-linkers and conjugates were formulated at 2× starting concentration (1000 nM for free drug linkers and 100 nM for ADCs) in RPMI medium and filtered through MultiScreen HTS 96-Well Filter Plates (Millipore). Filter sterilized samples were serial diluted (1:3) under sterile conditions and added into treatment wells. Plates were cultured at 37° C. in a CO2 incubator for 72 hrs. For cell viability measurement, 30 μl of Cell Titer-Glo® reagent (Promega Corp.) was added into each well, and plates processed as per product instructions. Relative luminescence was measured on an ENVISION® plate reader (Perkin-Elmer; Waltham, Mass.). Relative luminescence readings were converted to % viability using untreated cells as controls. Data was fitted with non-linear regression analysis, using log(inhibitor) vs. response, variable slope, 4 parameter fit equation using GraphPad Prism. Data was expressed as % relative cell viability vs. dose of free drug-linker or conjugate in nM.

OPM-2 (MM) = assay: as above; set-up: key to Cell Killing Activity Span: NK = no killing; NB = no binding; conditions: 72 hrs
Method: as §1

RPMI-8226 (MM) = assay: as above; set-up: key to Cell Killing Activity Span: NK = no killing; NB = no binding; conditions: 72 hrs
Method: as §1

SUP-B15 (ALL) = assay: as above; conditions: 72 hrs
Method: as §1

HH T lymphoma cells = assay: T lymphoma cell line cell killing assay; conditions: 120 hours
Method: A total of 12500 cells in a volume of 25 μL were seeded in a 384-well flat bottom white polystyrene plate the day before the assay. […] Filter-sterilized compounds were serial diluted in culture medium and 25 μL of the compounds were added into treatment wells in quadruplicates. Plates were cultured at 37° C. in a CO2 incubator for 120 hours. For cell viability measurement, 30 μL of Cell Titer-Glo® reagent (Promega Corp.; Madison, Wis.) was added into each well, and plates were processed per product instructions. Relative luminescence was measured on an ENVISION® plate reader (Perkin-Elmer; Waltham, Mass.). Relative luminescence readings were converted to percent (%) viability using untreated cells as controls. Data was fitted with non-linear regression analysis, using log(inhibitor) vs. response, variable slope, 4-parameter fit equation using GraphPad Prism (GraphPad v 5.00, Software; San Diego, Calif.). Data was expressed as percent (%) relative cell viability (average of the quadruplicates) vs. dose of compounds in units of nanomolar (nM). Cell killing EC50 values and span were calculated by Prism in order to evaluate the potency of each compound on each cell line.

B1: Conjugate A: anti-CD74 IgG with pAMF at heavy chain EU position 404 conjugated to DBCO-PEG4-maytansine (conjugate)
VH: QVQLVESGGGVVQPGRSLRLSCAASGFNFSDYGMHWVRQAPGKGLEWVAVIWYDGSISYYADSVKGRFTISRDNSKNTLYLQMNSLRAEDTAVYYCARGGTVEHGAVYGTDVWGQGTTVTVSS
VL: DIQMTQSPSSVSASVGDRVTITCRASQGIGSWLAWYQQKPGKAPKLLIYAADRLQSGVPSRFSGSGSGTDFTLTISSLQPEDFATYYCQQYHTYPLTFGGGTKVEIK
modifications: non-natural residues
B1 was tested, and the “Cell Killing Activity Span” value (K562 (CML)) was “NK”, the IC50 (K562 (CML)) was greater than 50 nM and the “Cell Killing Activity Span” value (OPM-2 (MM)) was “NK”. The IC50 (OPM-2 (MM)) was greater than 50 nM, the “Cell Killing Activity Span” value (RPMI-8226 (MM)) was “NK” and the IC50 (RPMI-8226 (MM)) was greater than 50 nM. The “Cell Killing Activity Span” value (SUP-B15 (ALL)) was 64%, the “Cell Killing Activity Span” value (SUP-B15 (ALL); listed as A) was 65% and the “Cell killing Span” value (HH T lymphoma cells) was 77%. For the same molecule, the EC50 (HH T lymphoma cells) was 0.22 nM and the “cell killing activity (in words)” value (HH T lymphoma cells) was “potent cell killing activity”.
